# Columns and labels:
# Saccharomyces cerevisiae [1] = assay: protein stability index of tFT-peptide fusion in wild type (PSI (0-1 scale)); higher = more stable (slower turnover); conditions: genetic background: wild type
# Saccharomyces cerevisiae [2] = assay: protein stability index of tFT-peptide fusion in deletion strain of DOA10 (PSI (0-1 scale)); higher = more stable (slower turnover)
# Description: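 MPS profiling in S. cerevisiae of two library types built from selected 12-aa C-degron peptides (IN1, IN2, LN1, LN3, VN2, R1-R5, W1-W3, Atg1 and Rpa12 C-termini): saturation mutagenesis libraries and C-terminal +1 capping libraries (13 aa). Each peptide is fused to the C-terminus of a sfGFP-mCherry timer, after a GGGS linker. Cells are FACS-sorted into 8 mCherry/sfGFP bins and sequenced. PSI runs from 0 (unstable) to 1 (stable), measured once in wild type and in the das1Δ or doa10Δ background.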
# 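Throughout, for protein stability index of tFT-peptide fusion in deletion strain of DOA10: PSI per variant is the weighted mean of its sequencing read distribution over the sorted stability bins, counting only variants with over 10 reads summed across bins.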
# 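Throughout, for protein stability index of tFT-peptide fusion in wild type: PSI derived as read-weighted mean over the 8 sorting bins, only variants exceeding 10 total reads kept, mCherry placed adjacent to the peptide and sfGFP distal.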
Sequence,protein stability index (Saccharomyces cerevisiae [1]),protein stability index (Saccharomyces cerevisiae [2])
RVTRLDADYFRI,0.686,0.722
GLYMCSKGCWFR,0.489,0.673
GLYMCSVGCWYR,0.407,0.611
CLVSLPILLFFRC,0.0599,0.45
RSLRVLLQLYFR,0.383,0.606
CLVSLPIGLFFR,0.101,0.674
YVTRLDAIYFRI,0.185,0.603
RSLRVLHPLYFR,0.218,0.701
RVTRLDAIYSRI,0.702,0.737
RVGRLDAIYFRI,0.412,0.647
CLVSLPILLWFR,0.0579,0.567
RSLRGLLPLYFR,0.444,0.696
CLMSLPILLFFR,0.0514,0.591
RVTRLDTIYFRI,0.423,0.69
RSLQVLLPLYFR,0.264,0.675
AITLPMCPLLLW,0.436,0.646
GLYMCSVGCWKR,0.612,0.66
VITLPMCPLLLR,0.303,0.615
CLVSLPILLNFR,0.424,0.655
CLVSRPILLFFR,0.115,0.638
GLYMCSVGTWFR,0.514,0.668
RGLRVLLPLYFR,0.378,0.673
GLYMCSVECWFR,0.456,0.465
CLVSLPILEFFR,0.637,0.672
CLVSLPILLFFN,0.118,0.288

Sequence,protein stability index (Saccharomyces cerevisiae [1]),protein stability index (Saccharomyces cerevisiae [2])
RSLRVLLNLYFR,0.397,0.659
NVTRLDAIYFRI,0.379,0.711
AITLPMCPLLLQ,0.567,0.654
GLYMCSVGCWSR,0.584,0.622
GLYMCSIGCWFR,0.231,0.602
RVTRLDAIYGRI,0.69,0.724
DSLRVLLPLYFR,0.33,0.676
CLVSDPILLFFR,0.589,0.656
GLYMCKVGCWFR,0.396,0.631
RSLRVLLPIYFR,0.242,0.663
CLGSLPILLFFR,0.0966,0.628
AIQLPMCPLLLR,0.213,0.649
GLYMCSVGCWFQ,0.476,0.504
CLVYLPILLFFR,0.0623,0.404
AATLPMCPLLLR,0.377,0.684
GLKMCSVGCWFR,0.247,0.678
RVTRLDATYFRI,0.661,0.69
CLVSEPILLFFR,0.499,0.643
AIDLPMCPLLLR,0.319,0.651
RSLRVLLPEYFR,0.653,0.677
RSLNVLLPLYFR,0.266,0.669
CLESLPILLFFR,0.192,0.65
RSHRVLLPLYFR,0.317,0.651
RGTRLDAIYFRI,0.57,0.684

# From the supplement of paper PMC10724198
